B1: TPR t1 (parent)
chain: GACCAAUCUGCCCUCAGAGCUCGAGAACAUCUUCGGAUGCAGAGGAGGCAGGCUUCGGUGGCGCGAUAGCGCCAACGUCCUCAACCUCCAAUGCAUCCCACCACAUGAUGAUGCCUGAAGAGCCUUGGUUUUUUG

The data set covers variants of B1. Description: polymerase ribozyme fitness, log enrichment relative to wild type (log ratio); higher = more active; in vitro selection for triplet polymerase activity. The method in brief:
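The heterodimeric triplet polymerase ribozyme's subunits were each mutagenized into PCR-built libraries and transcribed. Every library was selected once, in triplicate, by annealing with a biotinylated primer, the partner subunit and triplets, incubating frozen at −7 °C, gel-excising extended constructs, capturing on streptavidin beads and running RT-PCR. Input and output libraries were Illumina-sequenced, with genotypes kept only at ≥10 input reads and ≥1 read per output. Fitness, from inverse-variance-weighted replicate averages, is the base-2 logarithm of genotype enrichment over wild-type enrichment.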
Take G44A A103G A105U G117A: the “polymerase ribozyme fitness (log ratio)” value was -6.51. The same measure for G44C U54A G61U C85U U87A C102A: -4.76. The same measure for G45A C123G: 0.984; for A43U U54A C73U G77C: -1.92. The same measure for G45A C72U A74U: -1.2; for G44U G135U: -2.86. For the variant A43U A46G C62G, the “polymerase ribozyme fitness (log ratio)” value was -4.27. The same measure for G44C C101A: -1.76; for G44U C72U C115U U129G: -4.96.

Consider A43U C104A A118U, for which the “polymerase ribozyme fitness (log ratio)” value was -4.29.

Take A43U C70A: the “polymerase ribozyme fitness (log ratio)” value was -3.22. The same measure for G44U G45A U54A: -3.42. The same measure for A43G U87G: -0.843. The same measure for G45U C114U: -3.17; for G44C G71A C82U A83C: -2.53. For A43G U55C C64U C72G, the “polymerase ribozyme fitness (log ratio)” value is -2.14.

Turning to G45A C70G G110C, the “polymerase ribozyme fitness (log ratio)” value is -6.17. The same measure for G45U C123U G127U: -1.39; for A43G G60U: -1.12; for G44U C123U: 0.929. The same measure for A43U G48U G61A: -1.54; for G44C C56U C79A C101U: -2.56; for G45U C56A G128C: -5.66. For the variant A43U G120C, the “polymerase ribozyme fitness (log ratio)” value is -0.477. Take G44A C53U: the “polymerase ribozyme fitness (log ratio)” value is -2.11. The same measure for G44U U96A: -2.64.

For G45C C72U A90U G128C, the “polymerase ribozyme fitness (log ratio)” value is -4.85.

In the case of A43G C114G G135U, the “polymerase ribozyme fitness (log ratio)” value is -3.37.

With G44A A121U, the “polymerase ribozyme fitness (log ratio)” value worked out at 1.03. The same measure for G45A C85G: -3.89; for A43U G110A: -3.03.

For the variant G44U C49A G77U G120C U130G, the “polymerase ribozyme fitness (log ratio)” value was -2.08.

As for G45A C88A, the “polymerase ribozyme fitness (log ratio)” value was -0.795. Turning to G45U G48A G69U, the “polymerase ribozyme fitness (log ratio)” value was -0.269.

Regarding G45A U92A, the “polymerase ribozyme fitness (log ratio)” value was -3.38. The same measure for G44U A68G C85A: -5.43; for G45U C85G G122A: -3.83. The same measure for A43U G60U C64G C73G C85U C98G C115U: -6.57; for G45U G48A: -1.51; for G44U A121U: 0.755. The same measure for G44C C72U U78G C115G U133G: -1.84. G44U A90G U132C: the “polymerase ribozyme fitness (log ratio)” value was -0.625.

Take A43U G44U A74U U87A: the “polymerase ribozyme fitness (log ratio)” value was -5. The same measure for G44A A68G: -3.75; for G44U U54C C64U C102U G113A G128U: -6.53; for G44C C73U: -0.621. The same measure for G44U A46G C62U C94G: -4.05; for A43U G44U G48A G122A: -2.63; for G45U C104U C124A: -1.14. The same measure for A43G U54C C88U: -1.48. On to G45U A50U C114A G135A, for which the “polymerase ribozyme fitness (log ratio)” value is -5.32. For A43U A111U, the “polymerase ribozyme fitness (log ratio)” value was -4.27. The same measure for G44A C62A A111G: -3.93; for A43U G71A: -2.46.

Regarding G44U C64U C82U U106G G120A, the “polymerase ribozyme fitness (log ratio)” value is -1.25. The same measure for G44C A50G G52U U54C U92C C124A: 0.995.

For the variant A43U G44A C115A C124A U125C U132A, the “polymerase ribozyme fitness (log ratio)” value was determined as 0.582.

Regarding G44C G127A U130G, the “polymerase ribozyme fitness (log ratio)” value is -2.95.

Turning to G45C U126A, the “polymerase ribozyme fitness (log ratio)” value was -2.8. As for G45C U87C, the “polymerase ribozyme fitness (log ratio)” value was -0.513.

For the variant G45C G61C U131G, the “polymerase ribozyme fitness (log ratio)” value was -1.96. The same measure for G45A C73U C97U A103U G120C: -5.59; for G44A U55A C70A: -3.95. Consider G44C A50C G60U, for which the “polymerase ribozyme fitness (log ratio)” value is -1.12. The same measure for G44A G71C: -2.21. The same measure for G44C G63C A91G: -2.62; for G44U U59G: -0.461; for A43U G47C U92C G93C A121G: -0.371. The same measure for G45A G69A: -3.01.

In the case of G44A C49G U55G C85U U106G G107C C115G, the “polymerase ribozyme fitness (log ratio)” value is -6.1.

G44C C102G A108C C114G G122A: the “polymerase ribozyme fitness (log ratio)” value was -6.67. As to G44A C49A C85G C94A, the “polymerase ribozyme fitness (log ratio)” value is -3.35.

Consider A43U G63U G113U A119G, for which the “polymerase ribozyme fitness (log ratio)” value is -2.34. The same measure for G45C C49U C97U A100U A121C U133C: -0.146; for G44C G63U C79U: -1.08; for G45A A50C G63A C82G G117C: -6.01. Turning to A43U A46G U106A, the “polymerase ribozyme fitness (log ratio)” value is -2.63. The same measure for G45A U59A C104U: -0.336; for A43U G60U C82A G113A G128C: -4.46; for G45A G47U A66U C73A C82U: -3.27. The same measure for G45A C56A: -0.425; for G44U C64G: -7.29; for G45C U55C A119U: -2.39. For the variant A43U C56G G71U G120A, the “polymerase ribozyme fitness (log ratio)” value was -4.58.
